Columns and labels:
FGFR1 = FGFR1 (UniProt P11362); assay: phosphorylation enrichment, bacterial display (enrichment ratio); higher = better substrate or ligand; peptides without Tyr show the background
c-Abl (mouse) = assay: as above
FGFR3 = FGFR3 (UniProt P22607); assay: as above
EPHB2 = EPHB2 (UniProt P29323); assay: as above
Fer (mouse) = assay: as above
c-Src = assay: as above
AncSZ = assay: as above
EPHB1 = EPHB1 (UniProt P54762); assay: as above
Hck = Hck (UniProt P08631); assay: as above
Hck, sequence (P08631 whole entry, looked up): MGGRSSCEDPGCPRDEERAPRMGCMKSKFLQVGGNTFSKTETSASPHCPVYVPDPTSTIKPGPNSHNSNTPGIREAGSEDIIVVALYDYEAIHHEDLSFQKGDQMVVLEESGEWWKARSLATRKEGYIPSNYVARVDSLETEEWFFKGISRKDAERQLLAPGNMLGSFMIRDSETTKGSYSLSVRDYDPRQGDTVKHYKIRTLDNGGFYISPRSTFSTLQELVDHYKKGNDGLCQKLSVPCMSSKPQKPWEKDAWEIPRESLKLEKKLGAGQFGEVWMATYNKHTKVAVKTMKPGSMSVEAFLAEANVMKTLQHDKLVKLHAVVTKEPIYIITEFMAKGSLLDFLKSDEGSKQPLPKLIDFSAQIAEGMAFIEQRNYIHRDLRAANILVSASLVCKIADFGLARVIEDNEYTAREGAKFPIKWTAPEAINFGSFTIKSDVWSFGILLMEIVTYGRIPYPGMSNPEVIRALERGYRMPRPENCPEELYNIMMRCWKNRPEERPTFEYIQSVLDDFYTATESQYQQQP

MERTK = MERTK (UniProt Q12866); assay: as above
MERTK, sequence (Q12866 whole entry, looked up): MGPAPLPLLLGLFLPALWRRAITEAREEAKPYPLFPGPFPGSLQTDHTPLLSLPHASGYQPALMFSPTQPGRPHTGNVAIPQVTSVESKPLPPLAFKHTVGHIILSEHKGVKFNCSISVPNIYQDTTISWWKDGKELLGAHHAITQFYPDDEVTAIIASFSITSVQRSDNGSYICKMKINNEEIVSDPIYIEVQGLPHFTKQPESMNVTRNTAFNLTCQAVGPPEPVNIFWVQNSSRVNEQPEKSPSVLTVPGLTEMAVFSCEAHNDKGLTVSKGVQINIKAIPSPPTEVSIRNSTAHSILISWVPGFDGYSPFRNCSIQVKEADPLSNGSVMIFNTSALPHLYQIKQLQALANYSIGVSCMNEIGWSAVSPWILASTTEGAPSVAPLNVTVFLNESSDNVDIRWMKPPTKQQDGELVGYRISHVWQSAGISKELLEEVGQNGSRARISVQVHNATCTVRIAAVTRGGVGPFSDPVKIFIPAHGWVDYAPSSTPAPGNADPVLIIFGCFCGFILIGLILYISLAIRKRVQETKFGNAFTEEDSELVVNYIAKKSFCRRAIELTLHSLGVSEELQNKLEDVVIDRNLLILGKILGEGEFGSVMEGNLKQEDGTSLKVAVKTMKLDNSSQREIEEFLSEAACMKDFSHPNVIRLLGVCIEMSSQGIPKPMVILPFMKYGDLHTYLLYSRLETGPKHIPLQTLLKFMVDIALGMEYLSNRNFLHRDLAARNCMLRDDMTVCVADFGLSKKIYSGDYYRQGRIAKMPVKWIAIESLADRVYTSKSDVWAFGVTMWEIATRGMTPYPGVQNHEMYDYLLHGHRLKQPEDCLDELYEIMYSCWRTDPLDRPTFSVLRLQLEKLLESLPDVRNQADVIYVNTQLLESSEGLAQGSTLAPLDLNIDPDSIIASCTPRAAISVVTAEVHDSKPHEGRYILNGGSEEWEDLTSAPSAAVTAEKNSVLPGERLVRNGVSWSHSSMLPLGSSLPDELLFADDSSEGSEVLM

Fyn = Fyn (UniProt P06241); assay: as above
Fyn, sequence (P06241 whole entry, looked up): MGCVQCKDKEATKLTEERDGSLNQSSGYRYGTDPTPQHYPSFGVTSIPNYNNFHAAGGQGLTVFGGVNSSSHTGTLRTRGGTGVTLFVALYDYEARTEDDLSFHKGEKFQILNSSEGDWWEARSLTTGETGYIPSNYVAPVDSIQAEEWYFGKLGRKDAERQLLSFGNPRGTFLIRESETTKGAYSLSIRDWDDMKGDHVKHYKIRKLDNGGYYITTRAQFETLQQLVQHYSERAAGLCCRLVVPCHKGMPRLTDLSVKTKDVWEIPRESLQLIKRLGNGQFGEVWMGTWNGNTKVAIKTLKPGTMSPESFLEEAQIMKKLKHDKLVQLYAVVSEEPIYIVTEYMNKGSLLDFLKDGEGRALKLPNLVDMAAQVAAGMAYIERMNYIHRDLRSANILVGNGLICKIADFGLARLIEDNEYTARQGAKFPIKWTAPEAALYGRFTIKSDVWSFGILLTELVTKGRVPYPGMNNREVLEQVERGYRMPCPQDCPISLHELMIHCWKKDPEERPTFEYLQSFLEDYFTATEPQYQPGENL

Fes = Fes (UniProt P07332); assay: as above
Fes, sequence (P07332 whole entry, looked up): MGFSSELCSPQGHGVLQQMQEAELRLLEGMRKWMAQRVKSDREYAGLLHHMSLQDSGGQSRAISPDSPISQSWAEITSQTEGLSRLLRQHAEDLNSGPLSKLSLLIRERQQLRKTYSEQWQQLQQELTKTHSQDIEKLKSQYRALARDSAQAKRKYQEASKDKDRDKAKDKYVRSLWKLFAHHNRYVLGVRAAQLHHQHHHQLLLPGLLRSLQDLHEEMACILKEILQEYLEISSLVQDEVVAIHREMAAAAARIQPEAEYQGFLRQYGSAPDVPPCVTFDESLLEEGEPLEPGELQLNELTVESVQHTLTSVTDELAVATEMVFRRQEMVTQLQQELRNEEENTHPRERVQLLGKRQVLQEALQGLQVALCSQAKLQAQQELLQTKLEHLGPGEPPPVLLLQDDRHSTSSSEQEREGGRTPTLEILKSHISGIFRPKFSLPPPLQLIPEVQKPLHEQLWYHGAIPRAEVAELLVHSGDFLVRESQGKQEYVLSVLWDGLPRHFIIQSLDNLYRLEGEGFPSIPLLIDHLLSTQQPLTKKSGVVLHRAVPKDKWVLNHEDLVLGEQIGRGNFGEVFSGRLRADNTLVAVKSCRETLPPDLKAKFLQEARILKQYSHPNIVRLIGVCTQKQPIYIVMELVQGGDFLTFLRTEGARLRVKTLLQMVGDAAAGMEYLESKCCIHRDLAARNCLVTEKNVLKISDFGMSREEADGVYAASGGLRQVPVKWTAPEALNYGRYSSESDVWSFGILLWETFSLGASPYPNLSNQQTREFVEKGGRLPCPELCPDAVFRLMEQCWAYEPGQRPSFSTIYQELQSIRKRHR

Jak2 = Jak2 (UniProt O60674); assay: as above
Jak2, sequence (O60674 whole entry, looked up): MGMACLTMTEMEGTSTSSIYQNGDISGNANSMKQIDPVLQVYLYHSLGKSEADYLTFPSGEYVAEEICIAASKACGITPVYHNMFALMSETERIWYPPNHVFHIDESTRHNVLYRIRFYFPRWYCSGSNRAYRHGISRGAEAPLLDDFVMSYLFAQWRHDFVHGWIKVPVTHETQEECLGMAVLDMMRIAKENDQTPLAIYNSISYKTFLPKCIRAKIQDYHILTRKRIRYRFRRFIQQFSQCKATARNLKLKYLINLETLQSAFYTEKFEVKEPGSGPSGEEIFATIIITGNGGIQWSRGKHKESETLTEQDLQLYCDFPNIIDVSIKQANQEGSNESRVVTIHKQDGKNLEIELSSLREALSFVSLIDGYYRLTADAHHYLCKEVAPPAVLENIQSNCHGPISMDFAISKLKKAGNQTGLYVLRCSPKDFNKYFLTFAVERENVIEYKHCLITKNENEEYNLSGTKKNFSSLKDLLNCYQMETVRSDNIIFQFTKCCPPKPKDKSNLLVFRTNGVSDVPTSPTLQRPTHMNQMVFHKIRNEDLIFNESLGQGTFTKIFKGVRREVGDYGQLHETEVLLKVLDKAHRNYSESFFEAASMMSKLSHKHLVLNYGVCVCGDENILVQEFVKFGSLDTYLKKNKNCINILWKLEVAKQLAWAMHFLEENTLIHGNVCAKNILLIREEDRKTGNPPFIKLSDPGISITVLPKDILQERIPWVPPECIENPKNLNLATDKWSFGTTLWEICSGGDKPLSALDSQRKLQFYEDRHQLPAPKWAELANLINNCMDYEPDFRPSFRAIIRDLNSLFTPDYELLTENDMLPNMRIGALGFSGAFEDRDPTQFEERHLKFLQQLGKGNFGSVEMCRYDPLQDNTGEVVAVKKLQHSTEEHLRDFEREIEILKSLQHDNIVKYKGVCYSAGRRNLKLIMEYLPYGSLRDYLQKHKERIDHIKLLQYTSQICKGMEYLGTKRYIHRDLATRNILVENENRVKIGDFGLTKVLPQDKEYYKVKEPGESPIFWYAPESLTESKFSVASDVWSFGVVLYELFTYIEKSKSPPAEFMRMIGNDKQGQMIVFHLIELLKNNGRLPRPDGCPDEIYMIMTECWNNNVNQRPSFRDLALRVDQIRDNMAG

SHP2-C SH2 = assay: SH2 binding enrichment of the phosphorylated peptide, bacterial display (enrichment ratio); higher = better substrate or ligand; peptides without Tyr show the background
Grb2 SH2 = Grb2 SH2 (UniProt P62993); assay: as above
Grb2 SH2, sequence (P62993 whole entry, looked up): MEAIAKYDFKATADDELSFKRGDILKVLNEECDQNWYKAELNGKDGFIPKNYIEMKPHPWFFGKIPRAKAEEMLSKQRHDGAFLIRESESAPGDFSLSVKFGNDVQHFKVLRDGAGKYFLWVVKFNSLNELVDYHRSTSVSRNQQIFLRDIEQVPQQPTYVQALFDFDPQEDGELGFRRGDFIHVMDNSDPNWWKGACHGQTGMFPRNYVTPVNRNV

c-Src SH2 = assay: as above
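For SH2 binding enrichment of the phosphorylated peptide, bacterial display in this document: peptide library displayed on the E. coli surface as eCPX fusions, selected cells deep-sequenced, score is each peptide's frequency after selection divided by its frequency in the input.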
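For phosphorylation enrichment, bacterial display in this document: 11-residue human phosphosite peptides and single-mutation variants displayed on the E. coli surface, counted by deep sequencing, each peptide's frequency after selection divided by its frequency in the unselected input library; frequency after pTyr selection over input frequency; kinase dosed for 20-30% of maximal phosphorylation in three min.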

FGFR3, sequence (P22607 whole entry, looked up): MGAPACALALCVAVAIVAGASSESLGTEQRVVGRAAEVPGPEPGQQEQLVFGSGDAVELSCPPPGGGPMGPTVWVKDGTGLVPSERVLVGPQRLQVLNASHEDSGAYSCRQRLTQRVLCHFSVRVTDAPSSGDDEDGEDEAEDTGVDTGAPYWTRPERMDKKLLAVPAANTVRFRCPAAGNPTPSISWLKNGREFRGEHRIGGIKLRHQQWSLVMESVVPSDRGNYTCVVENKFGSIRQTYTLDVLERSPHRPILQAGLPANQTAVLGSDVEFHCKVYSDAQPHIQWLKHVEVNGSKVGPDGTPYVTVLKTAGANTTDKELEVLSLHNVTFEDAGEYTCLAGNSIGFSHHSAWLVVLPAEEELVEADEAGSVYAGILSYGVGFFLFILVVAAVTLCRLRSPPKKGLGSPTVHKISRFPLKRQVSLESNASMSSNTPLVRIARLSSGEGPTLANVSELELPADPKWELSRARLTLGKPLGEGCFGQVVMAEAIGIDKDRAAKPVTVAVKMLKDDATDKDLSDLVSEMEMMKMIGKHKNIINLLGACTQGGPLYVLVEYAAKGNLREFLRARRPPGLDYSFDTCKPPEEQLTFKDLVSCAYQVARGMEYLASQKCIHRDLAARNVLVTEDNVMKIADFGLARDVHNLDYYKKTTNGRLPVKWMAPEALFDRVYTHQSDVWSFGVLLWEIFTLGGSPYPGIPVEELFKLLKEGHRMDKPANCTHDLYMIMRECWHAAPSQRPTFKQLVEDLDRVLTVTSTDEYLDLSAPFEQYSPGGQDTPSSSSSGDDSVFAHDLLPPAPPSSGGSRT

Sequence | phosphorylation enrichment (FGFR1) | phosphorylation enrichment (c-Abl (mouse)) | phosphorylation enrichment (FGFR3) | phosphorylation enrichment (EPHB2) | phosphorylation enrichment (Fer (mouse)) | phosphorylation enrichment (c-Src) | phosphorylation enrichment (AncSZ) | phosphorylation enrichment (EPHB1) | phosphorylation enrichment (Hck) | phosphorylation enrichment (MERTK) | phosphorylation enrichment (Fyn) | phosphorylation enrichment (Fes) | phosphorylation enrichment (Jak2) | SH2 binding enrichment (SHP2-C SH2) | SH2 binding enrichment (Grb2 SH2) | SH2 binding enrichment (c-Src SH2)
SLLKDYSPQLQ [OTC_Y345_T343K] | 0.495 | 0.59 | 0.999 | 0.525 | 0.489 | 0.469 | 0.703 | 0.554 | 0.504 | 0.443 | 0.6 | 0.806 | 0.624 | 0.604 | 0.884 | 0.463
KDHPDYKYQRR [SOX10_Y171_P175R] | 0.402 | 0.516 | 0.369 | 0.3 | 0.303 | 0.319 | 0.483 | 0.33 | 0.367 | 0.349 | 0.283 | 0.574 | 0.519 | 1.17 | 1.03 | 0.829
AKLDEYIAIAK [RCOR3_Y46] | 0.535 | 0.621 | 0.711 | 0.565 | 0.452 | 0.367 | 0.92 | 0.614 | 0.473 | 0.522 | 0.479 | 0.949 | 0.79 | 0.83 | 0.945 | 0.434
VKANTYEKFWP [GATM_Y100_YF] | 0.317 | 0.704 | 0.487 | 0.374 | 0.595 | 2.69 | 0.627 | 0.74 | 1.07 | 1.8 | 1.47 | 0.793 | 0.717 | 0.569 | 0.931 | 0.946
EVVGRYSVHYA [MLH1_Y183_N187Y] | 0.462 | 0.649 | 0.588 | 0.5 | 0.416 | 0.404 | 0.751 | 0.475 | 0.38 | 0.46 | 0.392 | 1.03 | 0.823 | 0.808 | 0.75 | 0.544
GNLQEYLTRHV [TGFBR2_Y336] | 0.516 | 0.667 | 0.584 | 0.564 | 0.462 | 0.363 | 0.794 | 0.474 | 0.465 | 0.368 | 0.455 | 0.828 | 0.581 | 0.659 | 0.744 | 0.451
KAFDMYSGDVM [FAM3D_Y122] | 0.593 | 0.508 | 0.569 | 1.15 | 0.423 | 0.935 | 0.832 | 1.18 | 1.23 | 0.876 | 0.846 | 0.732 | 0.653 | 0.559 | 0.829 | 0.462
GIFKDYFRFNF [PLA2G2D_Y85_S80G_YF] | 4.19 | 0.897 | 2.94 | 0.47 | 0.507 | 0.622 | 1.16 | 0.57 | 0.579 | 0.56 | 0.501 | 1.18 | 3.79 | 1.74 | 1.82 | 1.23
VCDSDYSASRW [LRP5_Y1552] | 0.449 | 0.737 | 0.684 | 0.877 | 0.455 | 0.518 | 1.16 | 0.691 | 0.518 | 0.382 | 0.603 | 1.02 | 0.731 | 0.697 | 0.979 | 0.586

Source: the supplement of paper PMC10065799, “High-throughput profiling of sequence recognition by tyrosine kinases and SH2 domains using bacterial peptide display” (eLife, 2023)
